We go through one protein from publication PMC7644609 (Proteins, 2020).

This data set concerns the molecule itself. In words: crystal structure.

B1: dCaprin fragment (residues 187-309), dimerization domain of Drosophila melanogaster Caprin (domain or fragment)
chain: GPSSPSRKDNLAKTIAETAKIREVLIIQNVLNCFNDDQVRSDFLNGENGAKKLENTELELLEKFFIETQTRRPETADDVSFIATAQKSAELFYSTINARPKSFGEVSFEKLRSLFQQIQDSGYLDKYYL
modifications: Se-Met labelled (L-seleno-methionine in place of methionine) in the crystal used for the structure
For the protein B1, the “stoichiometry N” value turned out to be 2.

Usually stoichiometry N stands for a count of units in the complex or per binding partner.
